# B1: TPR t1 (parent)
# chain: GACCAAUCUGCCCUCAGAGCUCGAGAACAUCUUCGGAUGCAGAGGAGGCAGGCUUCGGUGGCGCGAUAGCGCCAACGUCCUCAACCUCCAAUGCAUCCCACCACAUGAUGAUGCCUGAAGAGCCUUGGUUUUUUG
# Variants of: B1
# Assay: polymerase ribozyme fitness, log enrichment relative to wild type (log ratio); higher = more active; in vitro selection for triplet polymerase activity
# Method in brief: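 Input and output libraries were sequenced on Illumina after a single in vitro selection round, run in triplicate on PCR-built, transcribed mutant libraries of each subunit of a heterodimeric triplet polymerase ribozyme. Selection annealed libraries to a biotinylated primer, the partner subunit and triplets, incubated them frozen at −7 °C, then gel-excised extended constructs for streptavidin-bead capture and RT-PCR. Genotypes with ≥10 input reads and ≥1 read per output were kept. Fitness is the logarithm, taken in base 2, of genotype enrichment divided by wild-type enrichment, using inverse-variance-weighted replicate averages.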
row,Variant,polymerase ribozyme fitness (log ratio)
1,C62G U112A,-0.878
2,G63C A121G U130A,0.94
3,C62U U129A,-1.09
4,C62U G63U U78G U81G,-5.08
5,U67A C70G C89G C123G,-6.22
6,G63U C97U C98U G113A A118G U134G,-3.87
7,G63U A105G,-3.13
8,C64U C89U G117C,-4.79
9,C62U C72G C94A,-3.29
10,C62A G113C,-3.31
11,G63C C123A G127A G135C,-0.151
12,C62A G77U,-1.77
13,C62A G77A,-2.78
14,G63A A103U,-6.64
15,C64A G113C A118G,-6.38
16,C64U C89G A91U C97U C115U,-2.63
17,G61U G113C,-1.82
18,C62A C73G G117C U129G,-6.43
19,C64U C82G C89A U109A,-5.15
20,A66G C72U G107A C123A,-6.86
21,G63U A90C C101A,-4.63
22,C62A A91C C98G A111C C115U A118U G122A U126G,-7.7
23,C62U C88G,-0.561
24,C64U C101G,-1.69

row,Variant,polymerase ribozyme fitness (log ratio)
1,G63U U81G C97U U106A G120A U133C,-3.57
2,C62A C102A,-3.33
3,C62U G110C C124U U125A,-5.16
4,C62G G110A U126G,-5.29
5,G63C C114U A118C,-3.66
6,C64U A74G U78A,-2.93
7,C64U G113A,-1.32
8,C62G A90U,-3.82
9,C64U C72U,-0.106
10,G63C A75U U87A,-0.774
11,C62U U106A G120U C124G,1.54
12,G63C C98U,-2.15
13,A66U C73G,-1.75
14,C64A C70G A95U G110C C114U,-5.6
15,G63A A105G C124G,-2.8
16,C62U C98A,-5.51
17,C62U A100C U112C,-1.92
18,C62U C86U A100U G110A U129G,-4.42
19,C64U C82U U106G,-1.27
20,G63U U87G,-0.803
21,G63U U87A,-1.45
22,G63U G71C G113A,-6.74
23,G63U C97U,-1.62
24,G63C C115G,-2.43

row,Variant,polymerase ribozyme fitness (log ratio)
1,G63A A83C G127A G128C,-3.2
2,C62A C82G G117A,-3.75
3,C62G C86A,-3.17
4,A66C G113A,-1.78
5,G63U C85G G113A,-2.68
6,C62U U81C C101U,-0.199
7,C64U C82G C88U U131G,-0.778
8,A66C A74C A111C,-2.24
9,C62A U78G,-2.46
10,A68G A100U U133A,-3.27
11,C62U G93C,-1.8
12,G63A U78G U112A,-2.03
13,C64G U112G G120A,-5.95
14,G63C U112A,0.435
15,G63C U112G,-0.181
16,C62A C82A A121G,1.58
17,C62G A75C A118U C123A G135U,-2.3
18,C62G C114U,-4.41
19,C62G U106A A108G C115A C123A,-5.43
20,C64U G77A G93C C98U G120A C124G,-1.69
21,G63C G110U,-2.57
22,C64U U130C,-0.0426
23,G63C C89A U116C,-3.78
24,C64U C97U,-1.3

row,Variant,polymerase ribozyme fitness (log ratio)
1,G63A C79A G128C,-4.78
2,G63A C123G,0.797
3,C62G G110C,-6.06
4,G63A G120U,-0.702
5,C64U C123A,-0.0204
6,C64U A95G G117C,-4.22
7,G61U U112C,0.845
8,C62U A91C,-1.43
9,G63U C85A G128A,-4.29
10,G63C U81G,-4.28
11,C62G C89U A111C U126C U129C,-4.44
12,G63U A119G,-0.465
13,G63U A119U,-0.897
14,C62U C85A C101G,-3.99
15,G65A G120C U129A U132C,-6.78
16,C62G U133A,-1.22
17,G63A C64U,-5.38
18,G63U G120C G128C,-4.02
19,G61U U78C G113C U130G,-2.86
20,A66U A75U G113A,-2.74
21,C62U G65U,-3.73
22,C62U U87A A121U,2.07
23,C62A C72G,-2.09
24,C62A C72U,-1.74

row,Variant,polymerase ribozyme fitness (log ratio)
1,G63A C88U,-1.46
2,C64A C88G G110U,-6.03
3,C62U C85A U106G C123G,-1.11
4,C62U A91U G120A,-2.6
5,C62A U96A,-1.77
6,G63U U129C,-1.11
7,A66U U81G U116G C124A,-5.38
8,A66U C70U C88G,-2.66
9,G63C A84G,-1.73
10,G63A U132A,-0.756
11,G63C C86A U96G C102A,-5.23
12,G63A C115U A119C,-5.84
13,C62U G63U C101U G135A,-2.36
14,C64U C88U C97U,-0.745
15,G63C C86U U112A,0.23
16,C62U G113C G127C,-3.6
17,C62A C89A,-3.57
18,U67C C82G A119G,-5.87
19,C62A C99U C124A,-4.32
20,G63U C82U G127C,-1.96
21,G61U G110U,-0.117
22,G61U G110C,-2.85
23,C64U A111C C115A G127A,-4.2
24,G63U A108G,-3.13

row,Variant,polymerase ribozyme fitness (log ratio)
1,G61U U92C,-1.84
2,C64G C70A G93A C101A G120A G127A U131G,-6.32
3,G63U A84C,-1.52
4,C62G U132A,-0.911
5,C64A C86A U112G,-6.59
6,G61U G127C,-0.698
7,G63A C79A,-3.48
8,C64U C85U,-1.42
9,G63A C97U C115A,-0.416
10,G63A G113C,-2.53
11,G63A G113U G127C,-4.93
12,G63A U78C A84C U96G U116G,-4.46
13,A66C A105U A108G C124A,-7.55
14,G61U U130G,-0.614
15,C62U C64U C123A G128A,-1.1
16,G63U U78A,-0.683
17,C62U C70U U133A,0.14
18,G63A G113C U133A,-4.26
19,A66G C86G,-1.77
20,G63A U96G U112A A118G,-1.58
21,C62U A83C C88U G120A,0.0358
22,C62U C85U C123A,-1.23
23,G65C C101U,-4.71
24,G61U G135U,-1.65

row,Variant,polymerase ribozyme fitness (log ratio)
1,G63C U78G C98U,-2.14
2,C62A A118C,-2.96
3,G63A A119U G135U,-1.7
4,C62G C72U,-2.53
5,A66U G128A,-3.15
6,A66G C123G U133A,1.16
7,G63A U125A,-1.21
8,C62U U130G,-1.41
9,C64U C88U U106A U130A,-0.803
10,C62U U106C,-0.141
11,G61U U106C,0.11
12,G63A A74U,-3.72
13,C62G U106A,-1.16
14,G63A A90U,-3.43
15,G65U G120U,-5.78
16,G61U U109A,-3.77
17,G63U U92G G93C C98G A121G,-5.9
18,G63U C114A U133A,-3.35
19,C62U U92A,-3.44
20,C62U U92G,-2.9
21,G63U U92G G122A,-5.14
22,C64U C101A G110C,-7.07
23,G63A U78C A91G A121G,0.408

# Reference: the RNAGym collection of RNA variant scans (doi:10.1073/pnas.2313332121)
